Assay: label from the status in PepcDB records

| Sequence | protein production |
| --- | --- |
| MVKDSEFLTLVFQSILDEIDVGLHVVDEHGNTIVYNNKMMQIEDMEKHDVLNKNLMDVFMFSKQQDSTLVQALQEGKTIKNVKQSYFNNKGQEITTINHTYPIVQDGKIRGAVEIAKDVTKLERLIRENMNKKGSTTYTFDSILGTSPAIQDVIENAKRATRTSSSVLLAGETGTGKELFAQSIHNGSDRSGGPFISQNCAALPDSLVESILFGTKKGAFTGAVDQPGLFEQAHGGTLLLDEINSLNLSLQAKLLRALQERKIRRIGSTKDTPIDVRIIATMNEDPIDAIAGERMRKDLYYRLSVVTLIIPPLRERKEDILLLASEFIQKNNHLFQMNVEHISDDVKQFFLSYDWPGNIRELEHMIEGAMNFMTDEQTITASHLPYQYRMKIKPADIPEPETPRHQPAADLKEKMESFEKYVIENVLRKHGHNISKAAQELGISRQSLQYRLKKFSHSSNE | failed |
| MSLNGNGSIELKGTVEEVWSKLMDPSILSKCIMGCKSLELIGEDKYKADLQIGIAAVKGKYDAIIEVTDIKPPYHYKLLVNGEGGPGFVNAEGVIDLTPINDECTQLTYTYSAEVGGKVAAIGQRMLGGVAKLLISDFFKKIQKEIAKSKQEASEGHHHHHH | not failed |
| MGARAPFAVAGRGEIGRGQQGQAQPGGMMRALALALLLWPACAAAEFFTLKGHGGPVMGIAVGPEGQIATASFDNSVGLWTGRAPHWFEGHEAAVNTVAFQGGVLYSAGDDFTLRRWPEGTILGRHKGKITGLALSETLAATASWDGTIGLWPLDSRAPRSLDAASGVNAVAFSPDGTLLYSAGMDGVLRLWDVASGSELRQITRHGFGINEIVLNDADGWLAYGAVDGVTRILDLATGAERDFTLDRRPVLALALSPDRSQLAVGDGEGYIMVIDTASWRIARDFRATLRGPVWALAFSPDGANIHAGGIDDTMYSWPVASLSEHGKMASGERSFLKDPDQMDNGERQFARKCSICHALTPEGGRRAGPTLYRVFGRRAGTLPGYLYSDTLAGSDIVWTEESINSLFDLGPDHYIPGSKMPMQRITGAQDRADLIAYLRRATLAKESP | failed |
| ERRKTLETYQQLFYLLQTNPLYLAKLIFQMPQNKSTKFMDTVIFTLYNYASNQREEYLLLKLFKTALEEEIKSKVDQVQDIVTGNPTVIKMVVSFNRGARGQNTLRQLLAPVVKEIIDDKSLIINTNPVEVYKAWVNQL | failed |
| MENRKLAVLIDADNAQSSLIAELLAEVAKYGTAIVKRAYGDWTTTQLKGWKEVLHQYAISPIQQFAYTKGKNSTDSALIIDAMDLLYTGNFDGFCLVSSDSDFTRLATRLREGGLTVIGLGEQSKTPRPFIAACDKFVFTEILRPAPPAKPKPETAATADKPKARSSRTRAKAAPHKEKHPLQDMFTSAIEAVARDSGWAELSAVGSYLAKNDPSFDPRNWGHGRLSQMVKKLDFLTVQESRNGSKLHSEIRLRHDGEAAVAEPAAPVETPQPSPSEEAAPPPRKKRSPRKKISPAGLEHHHHHH | failed |
| MFQPHLPVRLPCYDLAPITSFTLGRSLRLRTSGTPGFHGLTGGVYKARERIHRAMADARLLANPASRSRVADFDPN | failed |
| MAKAVRIGAEGYKLKLDGAVQEIDGRSVVLVDVDSITPLMFGGSMKEKAKLLDAKFLRKYYEENKDFFFLSTREEKKMFVTLQLAREYAELVDDQFLRGFFEKALESAQKAF | not failed |
| MNEREAKMYELEFPAPDVASDGVDGPTLIIAMQGYADAGLAVEASADHLLSALEHRPVAVFNNDELIDYRSRRPAVTIDHNIVVDANELKLSMDVLRDSNGTPFLLLSGPEPDLRWDAFSQAVADLVRRFGVRRTICIYAAPMTVPHTRPLIVSAHGNSLDLIKHHFSIDSKVTIPGSASLHIERLLNKNNIDVAGYTAHVPHYLSASAYPLATLKLLEAITTSTNLDFPLKTLEADAQKTALQVEEQVAGSQEIESVVKILEQQYDE | failed |
| MVKHLQVRGRLYYRSLAHGLRLTMRRLLFCFLLVLTSLTAIAAEPARPKVGLVLSGGAARGLAHIGVLKALEEQGVRIDAIAGTSMGAVVGGLYASGYSVEELEKLATTLDWQQALSDAPPREDVPFRRKQDDRDFLVKQKLSFRDDGSLGLPLGVIQGQNLSLLLESKLAHTADTRDFDKLPIPFRAVATDIASGEKVVFRRGHLPQVIRASMSIPAVFAPVELDGRLLVDGGMVDNIPVDVAREMGVDLAIVVDIGTPLRDRKQLLTVVDVLNQSITLMTRRNSEEQLASLHRDDILIQPSLTAFGVTDFGRARHMIDAGYRATRLLDPRLAALRQLEGDASLAVARSPRQRTPVITAIRIENDSKVSDDVIRSYIRQPIDAPLELDRLQTDMGTLYGLDYFDRVQYRVVHKGNDHTLVINARGRRGGTDYLRLGLNLSDDLRGDSAFNLGASYRVNGINSLGAEWLTRGQIGDQQALYSEFYQPLDVGSRYFIAPYLDLGSQNIEATLDNDPVAEYRLERYGFGLNVGRQIGNSGEVRLGVGKAWGEAEVRIGDQDLPKVSFNEGFYELKYSFDTLDNVYFPHHGEDIGLTLRKYDKSLDSDQDYRQWLFTLDKAISSGPNTFVLGGSYGRTLDDTEVVTSSFVMGGARQLSGFREDSVSGQNASLLRMVYYRRLTPRAYVPLDFPLYIGGSLERGRAWNNDNEFDSGYINAASIFLGLDTPLGPLNFSYGANSAHEQAVYLNLGHTF | failed |
| MEPSGGEQEPGAVRFLDLPWEDVLLPHVLNRVPLRQLLRLQRVSRAFRSLVQLHLAGLRRFDAAQVGPQIPRAALARLLRDAEGLQELALAPCHEWLSDEDLVPVLARNPQLRSVALGGCGQLSRRALGALAEGCPRLQRLSLAHCDWVDGLALRGLADRCPALEELDLTACRQLKDEAIVYLAQRRGAGLRSLSLAVNANVGDAAVQELARNCPELHHLDLTGCLRVGSDGVRTLAEYCPVLRSLRVRHCHHVAESSLSRLRKRGVDIDVEPPLHQALVLLQDMAGFAPFVNLQV | not failed |
| MSVLKEYRTVSEVVGPLMIVDQVAGVHYNELVDITLHNGERRKGQVLEVQGDKAMVQLFEGSTGINLAKTKVRFTGHPLELAVSEDMVGRIFDGMGQPIDGGPELIPEKYLDIDGQAINPVARDYPDEFIQTGISAIDHLNTLVRGQKLPVFSGSGLPHNELAAQIARQATVLNSDDNFAVVFAAMGITFEEAEFFMNDLRETGAIDRSVLFINLANDPAIERIATPRIALTTAEYLAYEKGMHVLVIMTDMTNYCEALREVSAARREVPGRRGYPGYLYTNLSTLYERAGRLIGKKGSVTQIPILTMPEDDITHPIPDLTGYITEGQIILSQELYKNGFRPPINVLPSLSRLKDKGSGEGKTRQDHAATMNQLFAAYAQGKQAKELAVVLGESALSETDKLYVAFTNRFEEEYINQGFYTNRSIEESLDLGWELLSILPRTELKRIKDDMLDRYLPKADTTMTKVFVAND | failed |
| MPLDAPPLLPSADSDSTVSILQAKGDAPPAAATAAVGWPLLALTTWFGSGLIPLAPGTMGSIAALPFAWAIAWTWGPWALAPAAALVFVIGTLAAEAHVRRSGEKDPQRIVIDEVAGQWLTLAVAPLDPLAYGVGLVLFRICDITKPWPACWADRSVPGGFGIMLDDGFAAVYSTCMMALYVHYFM | failed |
| MAVNPATGKSDFVMMSEQQELGMGARYNQEILKQFPRYNDEKLQAYVQRVGERVARSSHRSNLQYHFTVIDSPDINAFALPGGYIYIHRGLIAYLGSEAELAAVLGHEVGHVTARHSVRQQSQASAWNILGQAVAIGTGVGAAGDLANVLGTAFVRGYGRDMELEADGLGAQYLARAGYDPTAMIQVVRVLKNQEDFAREEAARNGQAVQAGGYHGLFDTHPDNDRRLQEVVGPARQLANGQQEVGREVFLRHLEGMPFGDSASAGVRRGQNFYHAELDFTLSYPAGWKILNQPSALLGYPADEQSFIGMKLVPHDSRLTPAEFLRKNAGQRLAQEESLKQAGLNGYTAVVPGNPARRVAVIYQGDRAYLFVGVVKVGSLETQDDRFLSVIRSFRPLRDKERALAQPRRLHLVQVKAGQTLEQLAAGGEGSLSDSVARLRLLNDLYPSGEPRPGDWLKVVRLEHHHHHH | failed |
| MAFELSPSDLEPLLQGACFFGSGGGGTMISARHLAANFRKGDYYPTDKVRVVDVDEATDGDCVMVAYMGAPDAINQVQWPNGPVEAALAARQRLESQGRKLAYVVAPESGALGFVVASLVAAKLGLAVVDADGAGRAVPSLPMLTYAAAGVPPTPAFLAGESGLCVELGVRMPPPDGQRREDISTVVEQMLRPILTNPQFGQFGGLAMWMMSPAQLGGALPVRGTLSRALKLGRALQDGKVKTAEAMLDFLRRELDIKGKLLFGPATLASSEVSTAGGFDLGKVVLEDGERRCTVLYQNESLLAWDSALSHPLATAPDAISYFVEGEGQHVFSNGDLSGNDHGLDPSVRGRKAAVIALPAAAPLSEGLILQSFADELAQLGYLGPYAPVDAGREGARLEHHHHHH | not failed |
| MESGHRFDAQTLHSFIQAVFRQMGSEEQEAKLVADHLIAANLAGHDSHGIGMIPSYVRSWSQGHLQINHHAKTVKEAGAAVTLDGDRAFGQVAAHEAMALGIEKAHQHGIAAVALHNSHHIGRIGYWAEQCAAAGFVSIHFVSVVGIPMVAPFHGRDSRFGTNPFCVVFPRKDNFPLLLDYATSAIAFGKTRVAWHKGVPVPPGCLIDVNGVPTTNPAVMQESPLGSLLTFAEHKGYALAAMCEILGGALSGGKTTHQETLQTSPDAILNCMTTIIINPELFGAPDCNAQTEAFAEWVKASPHDDDKPILLPGEWEVNTRRERQKQGIPLDAGSWQAICDAARQIGMPEETLQAFCQQLAS | not failed |
| RRGWVREVTAEVWTGPLAPVADLAGDTGVVLSREADETWLARYQRKGVSEVALRVLESGPSVWFATVPGAEGADGAGGGGGVAAIGRCVVDGRWASFAAVEVDPAQRRRGLATAVMAALARRALDEGASAAWLQVETDNAGARALYAGMGFAAHHSYHHYREPAAAGTDR | failed |
| SGRKRLITDSYPVVKRREGPAGHSKGELAPELGEEPQPRDEEEAELELLRQFDLAWQYGPCTGITRLQRWCRAKHMGLEPPPEVWQVLKTHPGDPRFQCSLWHLYPL | failed |
| MEIKGESMQKSKFRRICVFCGSSQGKKSSYQDAAVDLGNELVSRNIDLVYGGGSIGLMGLVSQAVHDGGRHLTGETVGEVRAVADMHQRKAEMAKHSDAFIALPGGYGTLEELLEVITWAQLGIHDKPVGLLNVDGYYNSLLSFIDKAVEEGFISPTAREIIVSAPTAKELVKKLEVN | not failed |
| MKLAASLNRLSPKRLFRTKSKASVSRSEPSSFSSNASSSSSDGSYGNLKQGPTATPISVLPQNSGDFYTELVQAFKLIDRDDDGVVSRGDLAALISRLSHEPPSQEEVSLMLREVDGGDGGCISLEDLASRVAGTSGEGSVETEELREVFEIFDVDRNGKISAEELHRVFGVIGDERCTLEECMRMIATVDGNGDGFVCFDDFCRMMVPAMNDHHH | failed |
| MILLTKITLLLFSSIFFSYILYMKSHSFKKIEPRKCSLNLMIIGMAFIVVGEFLNFISSFVKYRVDIYVSFCFILGAILFVIFAIIFLNSVDNTLKCLYGCVYEDAMTGVYNRNGIKKIFKDTINKEDNFFVMSFDLDETKIINDNFGHLVGDEYIISAARAIKEVLGAKGVVGRTGGDEFAAIYISTDQEELKKVKTHINKRASEIFNGSNINISMGFSTYKKDGKNMKELFDLADKRMYQDKKNKRKADQRF | failed |
| MAIDVCCSEASGSGISPRISFSYDLDSTDDGEVRLDSTLLDSGSEFDFCFGSSCSVQEVSPADELFSEGKILPVQIKKEESLPQTVTFRVPRSASLSSSSSSSSSSSSSSRAPEKKMRLKELLLNPESDFEDKPRGLFLQFKRSISLNYDKSRNSKGLIRSFHFLSRSNSTPNPNLDLLPKETHHPHKTHNLPKHKPPLRRSSSLSSSSVPFYSKKPLGRNSFGNGNGGVRVSPVLNFPPPAFISNVADGFFSIGSLCNGKTNTKTKL | failed |

From a protein production outcome set (Wang et al. 2014)
